Values of other authors as cited in article PMC12055905.

Biological target: SARS-CoV-2 spike RBD (SARS-CoV-2) (UniProt P0DTC2)

## HBD-2 (from UniProt O15263)
  Kd: 300 nM
